Here are results for four proteins from publication PMC4109901, “Functional EF-Hands in Neuronal Calcium Sensor GCAP2 Determine Its Phosphorylation State and Subcellular Distribution In Vivo, and Are Essential for Photoreceptor Cell Integrity” (PLoS Genetics, 2014).

The data set concerns the molecule itself. Description: SDS-PAGE and immunoblot; in vitro phosphorylation reactions (with or without cGMP, in EGTA) of purified recombinant GCAP2 resolved by 15% SDS-PAGE and immunostained for GCAP2; bands above the 25 kDa monomer. (In general: A western blot detects proteins with antibodies after separation by electrophoresis.)

B1: recombinant bGCAP2, mock-treated (unphosphorylated) (natural protein, bovine, UniProt P51177 1-204, looked up)
chain: MGQQFSWEEAEENGAVGAADAAQLQEWYKKFLEECPSGTLFMHEFKRFFKVPDNEEATQYVEAMFRAFDTNGDNTIDFLEYVAALNLVLRGTLEHKLKWTFKIYDKDRNGCIDRQELLDIVESIYKLKKACSVEVEAEQQGKLLTPEEVVDRIFLLVDENGDGQLSLNEFVEGARRDKWVMKMLQMDLNPSSWISQQRRKSAMF
notes: Cross-linked to magnetic beads for the pull-down; also called mock bGCAP2; recombinant wildtype bGCAP2
On to B1, for which the binding result is “binds”.

B2: recombinant bEF^−GCAP2, mock-treated (unphosphorylated) (natural protein, bovine, UniProt P51177 1-204, looked up)
chain: MGQQFSWEEAEENGAVGAADAAQLQEWYKKFLEECPSGTLFMHEFKRFFKVPDNEEATQYVEAMFRAFDTNGDNTIDFLQYVAALNLVLRGTLEHKLKWTFKIYDKDRNGCIDRQQLLDIVESIYKLKKACSVEVEAEQQGKLLTPEEVVDRIFLLVNENGDGQLSLNEFVEGARRDKWVMKMLQMDLNPSSWISQQRRKSAMF
notes: Cross-linked to magnetic beads for the pull-down; also called mock bEF^−GCAP2; unphosphorylated bEF^−GCAP2
Take B2: the binding result is listed as “binds”.

B3: recombinant phosphorylated bEF^−GCAP2 (natural protein, bovine, UniProt P51177 1-204, looked up)
chain: MGQQFSWEEAEENGAVGAADAAQLQEWYKKFLEECPSGTLFMHEFKRFFKVPDNEEATQYVEAMFRAFDTNGDNTIDFLQYVAALNLVLRGTLEHKLKWTFKIYDKDRNGCIDRQQLLDIVESIYKLKKACSVEVEAEQQGKLLTPEEVVDRIFLLVNENGDGQLSLNEFVEGARRDKWVMKMLQMDLNPSSWISQQRRKSAMF
modifications: phosphorylated in vitro by PKG; Ser201 named as the site
notes: Cross-linked to magnetic beads for the pull-down
Turning to B3, the binding result is listed as “binds”.

B4: recombinant phosphorylated bGCAP2 (natural protein, bovine, UniProt P51177 1-204, looked up)
chain: MGQQFSWEEAEENGAVGAADAAQLQEWYKKFLEECPSGTLFMHEFKRFFKVPDNEEATQYVEAMFRAFDTNGDNTIDFLEYVAALNLVLRGTLEHKLKWTFKIYDKDRNGCIDRQELLDIVESIYKLKKACSVEVEAEQQGKLLTPEEVVDRIFLLVDENGDGQLSLNEFVEGARRDKWVMKMLQMDLNPSSWISQQRRKSAMF
modifications: phosphorylated in vitro by PKG; Ser201 named as the site
notes: Cross-linked to magnetic beads for the pull-down; also called P-GCAP2
In the case of B4, the binding result is “binds”.
